Here are results for one molecule from patent US20190309069A1 (SHANGHAI HENGRUI PHARMACEUTICAL, published 2019).

For test [1], the target named is T1, recombinant PD-1 extracellular domain Fc fusion protein (PD-1 Fc) (human, biotin label (sites not given) in the ELISA binding assay; unlabelled when coated in the ligand blocking assay).
T1 construct: also called human PD-1Fc; human PD-1
Description: ligand binding blocking ELISA: PD-1-FC coated, competitor biotin-labeled PD-L1. How it is done: In this experiment, a 96-well plate was coated with a PD-1 protein with the extracellular domain fused with FC (PD-1-FC), and incubated with the test PD-1 antibody; later biotin-labeled PD-L1 was added for incubation. After washing the plate, the binding amount of biotin-labeled PD-L1 was detected; the blocking IC₅₀ value of PD-1 antibody for ligand PD-L1 binding was calculated.
PD-1-FC was diluted to 1 μg/ml with PH 9.6 CB buffer (1.59 g Na₂CO₃ and 2.93 g NaHCO₃ were dissolved in 1 L of distilled water), pipetted into a 96-well plate at 100 μl/well and standed for 16 h-20 h at 4° C. The 96-well plate was washed once with PBST (PH7.4 PBS, containing 0.05% tweeen20) after PBS buffer was removed, then the plate was incubated and blocked for 1 h at room temperature with 120 μl/well PBST/1% milk. After removal of the blocking solution, the plate was washed with PBST buffer once, followed by addition of 90 μl of test PD-1 antibody which was diluted to a suitable concentration with sample diluents (PH7.4 PBS containing 5% BSA, 0.05% Tween20), and incubated for 1 h at 4° C. […] The absorbance value at 450 nm was read on the NOVOStar microplate reader; the blocking IC₅₀ value of PD-1 for ligand PD-L1 binding was calculated.
A general note: An ELISA detects its analyte on a solid surface through an enzyme-linked reagent.

The target in test [2] is T2, cynomolgus PD-1Fc (cynomolgus, UniProt B0LAJ3 25-170, Probably biotinylated for capture on avidin, as the human PD-1 FC was in this ELISA. Fused to an Fc that is not given.).
T2 construct: Source and construct of the cynomolgus PD-1 Fc fusion are not described; also called cyno PD-1; not shown: Fc part of the cynomolgus PD-1Fc fusion, and any linker
Description: ELISA, cyno PD-1Fc.

Test [3] addresses T3, human ICOS/Fc (Beijing Sino Biological Inc.) (human, UniProt Q9Y6W8 21-141, limits assumed).
T3 construct: Bought reagent; not shown: Fc part
T3 sequence (looked up): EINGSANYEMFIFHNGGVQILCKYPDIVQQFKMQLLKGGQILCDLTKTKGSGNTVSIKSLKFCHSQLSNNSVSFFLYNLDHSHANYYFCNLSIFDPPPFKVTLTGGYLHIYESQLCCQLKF
The experiment in a line: ELISA, protein coated at 1 µg/ml. As for the experimental part:
(§1) To detect the specific binding activity of PD-1 antibody to other proteins of the PD-1 family, human CTLA4 and human CD28 were used for binding assays. Meanwhile, the PD-1 of mice was also used for binding assays so as to determine the diversity of PD-1 antibody for different species other than human/monkey.
(§2) Selectively binding proteins: human PD-1, human ICOS, human CTLA4, human CD28 and mouse PD-1, (Beijing Sino Biological Inc.), were respectively diluted to 1 μg/ml with PBS buffer, pipetted into a 96-well plate at 100 μl/well and standed for 16 h-20 h at 4° C. The 96-well plate was washed once with PBST (PH7.4 PBS, containing 0.05% tweeen20) after PBS buffer was removed, then the plate was incubated and blocked for 1 h at room temperature with 120 μl/well PBST/1% milk. After removal of the blocking solution, the plate was washed with PBST buffer for 3 times, followed by addition of the test PD-1 antibody, and incubated for 1.5 h at room temperature. After removal of the reaction system, the plate was washed for 3 times with PBST, followed by addition of 100 μl/well HRP-labeled anti-murine secondary antibody (The Jackson Laboratory) which was diluted by PBST/1% milk, and incubated for 1 h at room temperature. The plate was washed for 3 times with PBST, followed by addition of 100 μl/well TMB, and incubated for 5-10 min at room temperature. Then the reaction was terminated with addition of 100 μl/well 1M H₂SO₄. The absorbance value at 450 nm was read on the NOVOStar microplate reader.

Test [4] deals with T4, human CTLA4 (Beijing Sino Biological Inc.) (human, UniProt P16410 36-162, limits assumed).
T4 construct: Bought reagent
T4 sequence (looked up): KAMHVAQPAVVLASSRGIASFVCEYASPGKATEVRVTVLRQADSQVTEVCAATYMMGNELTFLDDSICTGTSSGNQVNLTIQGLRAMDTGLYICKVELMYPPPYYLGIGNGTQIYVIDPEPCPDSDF
Description: ELISA, protein coated at 1 µg/ml. As for the experimental part:
as §1, §2

The target of test [5] is T5, human CD28 (Beijing Sino Biological Inc.) (human, UniProt P10747 19-152).
T5 construct: Bought reagent
Description: ELISA, protein coated at 1 µg/ml. How it is done: as §1, §2

Test [6] addresses T6, mouse PD1-Fc (Beijing Sino Biological Inc.) (mouse, UniProt Q02242 25-167, limits assumed).
T6 construct: Bought reagent; also called murine PD-1; not shown: Fc part
T6 sequence (looked up): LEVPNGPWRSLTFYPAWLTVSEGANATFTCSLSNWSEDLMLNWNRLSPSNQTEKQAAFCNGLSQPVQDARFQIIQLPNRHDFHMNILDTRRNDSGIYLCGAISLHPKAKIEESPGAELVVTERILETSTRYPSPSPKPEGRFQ
The experiment in a line: ELISA, protein coated at 1 µg/ml. How it is done: as §1, §2

B1: murine monoclonal antibody mAb005 (antibody, V domains shown)
VH: EVMLVESGGGLVKPGGSLKLSCAASGFTFSSYMMSWVRQTPEKRLEWVATISGGGANTYYPDSVKGRFTISRDNAKNTLYLQMSSLRSEDTALYYCARQLYYFDYWGQGTTLTVSS
VL: DIQMTQSPASQSASLGEGVTITCLASQTIGTWLTWYQQKPGKSPQLLIYTATSLADGVPSRFSGSGSGTKFSFKISSLQAEDFVTYYCQQVYSIPWTFGGGTKLEIK
notes: Murine monoclonal antibody from a hybridoma; also called PD-1 antibody mAb005
As for B1, the IC50 in test [1] turned out to be 1.13 nM. The EC50 in test [2] was determined as 0.27 nM. For the same molecule, the binding result in test [3], in test [4], in test [5] and in test [6] was “no binding” throughout.

As usually defined, the IC50 is the concentration that inhibits the measured activity by half. As a reminder, the EC50 is the concentration needed to bring the measured effect to its halfway point. The low end stands for higher potency in that assay, the high end for lower potency in that assay.
